B1: mouse anti-EphA4 monoclonal antibody (antibody A) (antibody, mouse IgG1, kappa, V domains shown)
VH: QVQLKQSGPSLVQPSQSLSITCTVSGFSLTRYGVHWVRQSPGKGLEWLGVIWRGGSTDYNAAFMSRLSITKDNSKSQVFFKMNSLQADDTAIYYCAKESLFGVYYDYGYYSMDYWGQGTSVTVSS
VL: DIQMTQSPSSLSASLGERVSLTCRASQEISGYLSWLQQKPDGTIKRLIYAASTLDSGVPKRFSGSRSGSDYSLTISSLESEDFADYYCLQYASYPLTFGAGTKLELKR
notes: purified from hybridoma supernatant
B2: humanized anti-EphA4 monoclonal antibody (antibody B) (antibody, human IgG2, V domains shown)
VH: QVQLVESGGGVVQPGRSLRLSCAVSGFSLTRFGVHWVRQAPGKGLEWVAVIWRGGSTDYNAAFMSRLTISKDNSKNTVYLQMNSLRAEDTAVYYCAKESLFGVYYDYGYYSMDYWGQGTTVTVSS
VL: DIQMTQSPSSLSASVGDRVTITCRASQEISGYLSWLQQKPGKAPKRLIYAASTLDSGVPSRFSGSRSGTEYTLTISSLQPEDFATYYCLQYASYPLTFGGGTKVEIKR
notes: expressed in Expi293F cells; also called humanized antibody of antibody A; HK2-42 / L1-8

Tests used:
[1] = target: T1, mouse EphA4 extracellular region-SEAP-His protein (mouse); experiment: competition ELISA; captured mouse EphA4 extracellular region-SEAP-His, competitor biotinylated mouse EphrinA1-Fc chimera (6 nM)
T1 construct: also called mouse EphA4 extracellular region-SEAP-His 10
Procedure: (§1) Anti-alkaline phosphatase antibodies (Thermo […]) were coated onto the wells of a 96-well plate (Nunc). After incubating at 4° C. overnight, the wells were blocked at room temperature for 1 hour by 1% Block Ace (DS Pharma Biomedical). After washing 3 times with 0.02% Tween 20/PBS (Thermo […]), mouse EphA4 extracellular region-SEAP-His protein was added to the wells (final concentration 10 nM), and incubated at room temperature for 1 hour. After washing 3 times, the ligand and antibody A (0, 0.003, 0.01, 0.03, 0.1, 0.3, 1, 3, 10, 30, 100, 300, 1000, 3000 nM) were supplemented to the wells. Note that biotinylated mouse EphrinA1-Fc chimera (R&D Systems, final concentration 6 nM) and biotinylated mouse EphrinB2-Fc chimera (R&D Systems, final concentration 2.5 nM) were employed as ligands. After incubating at room temperature for 1 hour and washing 3 times, horseradish peroxidase-labeled streptavidin (GE Healthcare) was added, and incubated at room temperature for 1 hour. After washing 3 times, TMBZ (3,3′, 5,5′-tetramethylbenzidine, Sigma) solution was added to the wells, and incubated at room temperature for 2 minutes. An equal amount of quenching solution (1 N H₂SO₄, Wako Pure Chemicals) was added to the wells, and absorbance at 450 nm was read by a microplate reader (PerkinElmer). […]

[2] = target: T2, human EphA4 extracellular region-SEAP-His protein (human, UniProt P54764 20-547); experiment: competition ELISA; captured human EphA4 extracellular region-SEAP-His, competitor biotinylated human EphrinB3-Fc chimera (2.3 nM)
T2 construct: also called human EphA4 extracellular region-SEAP-His 10; not shown: secretory alkaline phosphatase (SEAP); histidine tag

[3] = target: T1, mouse EphA4 extracellular …; experiment: competition ELISA; captured mouse EphA4 extracellular region-SEAP-His, competitor biotinylated mouse EphrinB2-Fc chimera (2.5 nM)
Procedure: as §1

[4] = target: T2, human EphA4 extracellular …; experiment: competition ELISA; captured human EphA4 extracellular region-SEAP-His, competitor biotinylated human EphrinA5-Fc chimera (0.7 nM)
Procedure: Anti-alkaline phosphatase antibodies (Thermo […]) were coated onto the wells of a 96-well plate (Nuns). After incubating at 4° C. overnight, the wells were blocked at room temperature for 1 hour by 1% Block Ace (DS Pharma Biomedical). After washing 3 times with 0.05% Tween 20/PBS (Thermo […]), human EphA4 extracellular region-SEAP-His protein was added to the wells (final concentration 10 nM), and incubated at room temperature for 1 hour. After washing 3 times, the ligand and serially diluted antibody A (0, 0.003, 0.01, 0.03, 0.1, 0.3, 1, 3, 10, 30, 100, 300, 1000, 3000 nM) were supplemented to the wells. Note that biotinylated human EphrinA5-Fc chimera (R&D Systems, final concentration 0.7 nM) and biotinylated human EphrinB3-Fc chimera (R&D Systems, final concentration 2.3 nM) were employed as ligands. After incubating at room temperature for 1 hour and washing 3 times, horseradish peroxidase-labeled streptavidin (GE Healthcare) was added, and incubated at room, temperature for 1 hour. After washing 3 times, TMBZ (3,3′,5,5 ′-tetramethylbenzidine, Sigma) solution was added to the wells, and incubated at room temperature for 2-5minutes. An equal amount of quenching solution (1 N H₂SO₄, Wako Pure Chemicals) was added to the wells, and absorbance at 450 nm was read by a microplate reader (Molecular Devices or PerkinElmer). […]

T2 sequence (P54764 20-547): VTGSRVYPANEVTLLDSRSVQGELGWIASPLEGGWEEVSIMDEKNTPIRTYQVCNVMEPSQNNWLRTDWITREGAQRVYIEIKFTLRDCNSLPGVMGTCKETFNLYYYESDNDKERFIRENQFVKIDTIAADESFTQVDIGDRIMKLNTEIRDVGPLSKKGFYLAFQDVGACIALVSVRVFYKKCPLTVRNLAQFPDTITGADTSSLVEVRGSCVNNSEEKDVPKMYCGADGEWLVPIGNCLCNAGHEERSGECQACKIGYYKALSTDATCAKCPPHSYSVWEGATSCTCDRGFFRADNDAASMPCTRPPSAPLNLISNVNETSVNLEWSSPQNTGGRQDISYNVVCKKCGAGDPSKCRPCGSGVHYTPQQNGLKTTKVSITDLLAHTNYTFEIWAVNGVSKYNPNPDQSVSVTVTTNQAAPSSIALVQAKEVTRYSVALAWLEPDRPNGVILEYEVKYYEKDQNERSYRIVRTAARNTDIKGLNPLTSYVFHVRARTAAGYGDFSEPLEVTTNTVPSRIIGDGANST
T1 sequence (chain, as listed by the source limits assumed): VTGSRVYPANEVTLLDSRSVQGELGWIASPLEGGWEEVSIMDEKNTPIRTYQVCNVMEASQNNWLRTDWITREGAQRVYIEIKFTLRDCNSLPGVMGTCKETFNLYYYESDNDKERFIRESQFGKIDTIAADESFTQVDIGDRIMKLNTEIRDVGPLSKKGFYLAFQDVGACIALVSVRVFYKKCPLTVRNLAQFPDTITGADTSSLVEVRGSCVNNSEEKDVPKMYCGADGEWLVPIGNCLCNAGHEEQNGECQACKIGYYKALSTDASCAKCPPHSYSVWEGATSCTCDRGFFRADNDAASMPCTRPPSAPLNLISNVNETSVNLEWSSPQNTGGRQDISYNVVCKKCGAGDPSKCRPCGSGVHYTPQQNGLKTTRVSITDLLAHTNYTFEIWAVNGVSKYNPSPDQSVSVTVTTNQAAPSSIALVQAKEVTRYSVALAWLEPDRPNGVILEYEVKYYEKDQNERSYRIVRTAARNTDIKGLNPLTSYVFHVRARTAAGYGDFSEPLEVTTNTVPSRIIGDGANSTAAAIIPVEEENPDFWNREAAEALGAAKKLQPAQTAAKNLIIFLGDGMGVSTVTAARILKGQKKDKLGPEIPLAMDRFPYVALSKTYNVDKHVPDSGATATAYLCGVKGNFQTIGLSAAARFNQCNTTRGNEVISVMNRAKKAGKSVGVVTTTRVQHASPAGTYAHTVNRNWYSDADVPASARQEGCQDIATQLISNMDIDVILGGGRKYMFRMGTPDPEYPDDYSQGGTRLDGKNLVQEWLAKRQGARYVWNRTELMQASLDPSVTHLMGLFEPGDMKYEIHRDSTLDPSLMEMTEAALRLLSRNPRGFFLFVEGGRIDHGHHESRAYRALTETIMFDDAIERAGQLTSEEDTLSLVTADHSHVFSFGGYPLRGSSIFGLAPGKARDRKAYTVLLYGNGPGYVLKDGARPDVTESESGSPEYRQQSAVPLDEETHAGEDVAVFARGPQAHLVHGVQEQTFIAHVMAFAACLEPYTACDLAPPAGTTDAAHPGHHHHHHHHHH

Binder	IC50 [1] [nM]	IC50 [2] [nM]	IC50 [3] [nM]	IC50 [4] [nM]
B1	~5.9	~1.4	~3.1	~2.8
B2	~8.7	~1.6	~4.2	~4.9

From patent US20240010735A1 (EISAI R AND D MANAGEMENT, published 2024)
